Results as given in the supplement of paper PMC9732359.
± gives the uncertainty stated by the source.

Test: protein stability index of a GFP-peptide fusion (yeast GPS) (PSI 1-4); higher = more stable; sorted into four equal gates, so the index is relative within each strain
Procedure, shortened: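 For each peptide, the protein stability index sums the read frequency in every gate after multiplying it by the gate number. Read frequencies came from plasmids that were PCR-amplified from each gate and Illumina-sequenced, with reads assigned to strains by barcodes. The gates were four equal bins of GFP/Cherry fluorescence ratio applied to mid-log yeast in leucine-free medium carrying a pooled library of tiled 17-residue yeast protein peptides fused downstream of GFP on a Cherry-expressing plasmid.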

Sequence	protein stability index (doa10∆)	protein stability index (pdr5∆)	protein stability index (san1∆)	protein stability index (ubr1∆)
KDALSNSILSVRDPWSI [SRB2]	3.27 ± 0.07	3.41 ± 0.087	3.1 ± 0.06	3.36 ± 0.093
KDEEETEYFENKQSVSN [DSN1]	3.46 ± 0.12	3.4 ± 0.091	3.31 ± 0.085	3.53 ± 0.054
KDGAKFIEVRNFLGDKK [RPL9A]	–	–	–	1.35 ± 0.27
KDGSNPRTLIGHRATVT [RPN14]	–	3.31 ± 0.26	3.07 ± 0.14	–
KDILNLASEVGDPALVY [ECM29]	2.87 ± 0.09	3.15 ± 0.12	3.39 ± 0.066	2.87 ± 0.076
KDKFNQIPLHRAASVGS [NAS6]	1.81 ± 0.074	2.13 ± 0.079	2.05 ± 0.15	2.26 ± 0.082
KDLKDDSIYTKPVKVAL [YJL039C/NUP192]	2.81 ± 0.049	2.98 ± 0.045	2.73 ± 0.053	3.02 ± 0.04
KDLKHIIYYKFNKNLGK [PRP8]	1.14 ± 0.052	1.28 ± 0.053	1.32 ± 0.11	1.17 ± 0.061
KDLTLCRYSCLALERMV [YCS4]	2.58 ± 0.23	2.36 ± 0.2	–	1.79 ± 0.13
KDMKLLRYYKNIWLNNK [NUT1]	2.01 ± 0.065	1.65 ± 0.074	1.97 ± 0.15	1.28 ± 0.054
KDMLYSGITGECLQAYI [RET1]	2.65 ± 0.047	2.68 ± 0.051	2.5 ± 0.052	2.31 ± 0.057
KDQALIGTINSIVHINS [SIR2]	1.69 ± 0.035	1.66 ± 0.032	1.75 ± 0.049	1.41 ± 0.027
KDSYVRIANIEQNHLDN [YDL088C/ASM4]	3.12 ± 0.14	3.43 ± 0.28	3.05 ± 0.13	3.18 ± 0.13
KDTNDHVDKRTKIDQEA [ISW2]	2.6 ± 0.047	2.62 ± 0.048	2.77 ± 0.051	2.57 ± 0.036
KDVAKPTGPKTAIDKNG [FAS2]	3.31 ± 0.18	3.04 ± 0.11	3.06 ± 0.074	3.19 ± 0.1
KDVKARIAAGDGDDDDE [QCR9]	1.83 ± 0.13	2.29 ± 0.19	2.12 ± 0.074	2.24 ± 0.12
KDVKAWAGKRLWDQDIA [COR1]	3.52 ± 0.11	3.4 ± 0.11	3.27 ± 0.061	3.2 ± 0.091
KDVLAQTSVTTNFNEIT [SWP82]	2.3 ± 0.079	2.75 ± 0.06	2.7 ± 0.071	2.76 ± 0.045
KEEELIERDSLVDDENE [BRN1]	–	–	–	3.25 ± 0.15
KEIYTTLGNQMLSAHNI [YJR042W/NUP85]	2.85 ± 0.099	2.82 ± 0.077	3.12 ± 0.079	3.08 ± 0.063
KEKLIGWYHSGPKLRAS [RPN8]	2.16 ± 0.055	2.41 ± 0.045	2.53 ± 0.051	2.63 ± 0.042
KEKWPSLELQSFQKIPL [YML103C/NUP188]	2.27 ± 0.1	2.62 ± 0.12	2.03 ± 0.11	2.73 ± 0.11
KELKEKEAAESPEEADV [PUP2]	3.44 ± 0.082	3.56 ± 0.086	3.02 ± 0.057	3.32 ± 0.054
KENFILDSLMKTTRLLL [YJL039C/NUP192]	1.96 ± 0.057	1.64 ± 0.05	1.42 ± 0.095	1.61 ± 0.05
KEPRLVIVTDPRSDAQA [RPS0A]	2.56 ± 0.14	3.06 ± 0.087	2.94 ± 0.064	3.05 ± 0.1
KFADGFLIHSGQPVNDF [RPS3]	2.67 ± 0.059	3.07 ± 0.097	3.22 ± 0.074	3.06 ± 0.087
KFFMKHGLILELQKIWQ [SRB5]	2.94 ± 0.096	3.02 ± 0.089	3.32 ± 0.069	3.18 ± 0.037

Sequence	protein stability index (doa10∆)	protein stability index (pdr5∆)	protein stability index (san1∆)	protein stability index (ubr1∆)
KFGACVAQGIMNAGGRN [RPN2]	3.02 ± 0.14	2.73 ± 0.28	2.52 ± 0.23	2.52 ± 0.13
KFIALCEQQPSQEREFS [SIN4]	2.78 ± 0.055	2.82 ± 0.063	2.67 ± 0.088	2.79 ± 0.056
KFKHIDDKYGRKFALEK [SRP72]	2.59 ± 0.061	2.81 ± 0.069	3.17 ± 0.054	3 ± 0.052
KFKKEKFDIIIVDTSGR [SRP54]	2.84 ± 0.046	3.01 ± 0.036	2.95 ± 0.034	3.1 ± 0.04
KFNNTQRESQIGAAELN [SNF12]	3.01 ± 0.097	3.03 ± 0.14	2.87 ± 0.057	3.38 ± 0.09
KGDGMTSAVASIGSIYQ [RPN1]	2.67 ± 0.28	3.14 ± 0.2	2.57 ± 0.23	3.03 ± 0.14
KGDINPEVSMIRDIREK [RPB2]	3.29 ± 0.16	2.36 ± 0.082	3.4 ± 0.075	2.68 ± 0.13
KGGIIASVGDILKTLER [YML031W/NDC1]	2.99 ± 0.11	2.93 ± 0.09	3.32 ± 0.092	2.87 ± 0.13
KGGSLYGLGLIYAGFGR [RPN2]	2.15 ± 0.095	2.28 ± 0.086	2.35 ± 0.063	2 ± 0.062
KGKARLGTLVNQKTSAV [RPL8A]	2.65 ± 0.078	2.38 ± 0.076	3.15 ± 0.083	2.94 ± 0.057
KGSRQCRVCSSHTGLIR [RPS29A]	2.73 ± 0.06	2.93 ± 0.049	2.62 ± 0.055	2.9 ± 0.043
KGSRQCRVCSSHTGLVR [RPS29B]	2.67 ± 0.065	2.79 ± 0.051	2.66 ± 0.056	2.61 ± 0.03
KGVLLYGPPGTGKTLLA [RPT4]	2.51 ± 0.045	2.58 ± 0.041	2.57 ± 0.048	2.29 ± 0.035
KGYLQRGDDGESYAYLA [CDC53]	3.17 ± 0.057	3.17 ± 0.055	3.21 ± 0.033	3.25 ± 0.044
KHGAVHLSTYLKVYKVG [RPL21A]	1.76 ± 0.07	1.69 ± 0.077	1.27 ± 0.2	3.02 ± 0.065
KIAKRRQVYKPVLDNPF [POP3]	1.92 ± 0.077	2.33 ± 0.082	1.99 ± 0.11	2.08 ± 0.066
KIALGSPIVNVLEDVYR [RRI2]	2.17 ± 0.15	2.96 ± 0.15	2.31 ± 0.15	2.77 ± 0.098
KIEGVATPQEAQFYLGK [RPL33B]	2.87 ± 0.083	3.03 ± 0.098	2.91 ± 0.091	3 ± 0.072
KIESEDDYILSGESVMD [SRB4]	3.4 ± 0.17	3.5 ± 0.1	3.38 ± 0.15	2.96 ± 0.075
KIINTHSDMASKMYNTD [PRP8]	2.72 ± 0.049	2.76 ± 0.052	2.77 ± 0.05	2.28 ± 0.029
KIIPKDISATQLPKQLW [ITC1]	2.22 ± 0.11	2.43 ± 0.14	2.45 ± 0.12	2.32 ± 0.13
KIKAILESVGIEIEDEK [RPP2A]	2.75 ± 0.084	3.3 ± 0.11	2.8 ± 0.11	2.99 ± 0.13
KIMQEATQSGGVRPFGV [PRE8]	–	2.45 ± 0.29	–	2.95 ± 0.1
KINQERLERRINLTKVT [CSI1]	1.91 ± 0.062	1.96 ± 0.062	1.4 ± 0.095	1.37 ± 0.045
KIPILAQHESFLRQKIC [RPN9]	1.72 ± 0.046	2.06 ± 0.055	1.85 ± 0.076	2.14 ± 0.038
KIQVVDRHIGCVYSGLI [PRE10]	1.28 ± 0.12	1.7 ± 0.29	–	1.36 ± 0.14
KIRARSITLQGDVYDPE [SMC2]	2.07 ± 0.065	2.19 ± 0.059	1.79 ± 0.16	1.86 ± 0.067
